Numbering of substitutions follows the chain as printed.

B1: 17G6A2_hzH2L5_hIgG1 (antibody, V domains shown)
VH: EVQLVESGGGLVKPGGSLRLSCAASGFTFSSYGMSWVRQAPGKGLEWVATISSGDSYTYYPDSVKGRFTISRDNAKNSLYLQMNSLRAEDTAVYYCARQLYYSYGYYFDYWGQGTTVTVSS
VL: DIVLTQSPASLAVSPGQRATITCRASESVSFHGTHLMHWYQQKPGQPPKLLIYAASNLESGVPARFSGSGSGTDFTLTINPVEAEDTANYYCQQSIEDPPTFGGGTKVEIKR
notes: Humanized, human IgG1/kappa (hzVH02 + hzVL05)
B2: 17G6A2_hzH1L8_hIgG1 (antibody, V domains shown)
VH: B1 VH with A49S
VL: B1 VL with G72E, E85N, T87A
notes: Humanized, human IgG1/kappa (hzVH01 + hzVL08); also called 17G6A2_hzHL8_hIgG1
B3: 17G6A2_hzH3L5_hIgG1 (antibody, V domains shown)
VH: B1 VH with G44R
VL: B1 VL
notes: Humanized, human IgG1/kappa (hzVH03 + hzVL05)
B4: 17G6A2_hzH3L6_hIgG1 (antibody, V domains shown)
VH: B1 VH with G44R
VL: B1 VL with E85N, T87A
notes: Humanized, human IgG1/kappa (hzVH03 + hzVL06)
B5: 17G6A2_hzH3L8_hIgG1 (antibody, V domains shown)
VH: B1 VH with G44R
VL: B1 VL with G72E, E85N, T87A
notes: Humanized, human IgG1/kappa (hzVH03 + hzVL08)
B6: 17G6A2_hzH2L7_hIgG1 (antibody, V domains shown)
VH: B1 VH
VL: B1 VL with G72E
notes: Humanized, human IgG1/kappa (hzVH02 + hzVL07)
B7: 17G6A2_hzH2L6_hIgG1 (antibody, V domains shown)
VH: B1 VH
VL: B1 VL with E85N, T87A
notes: Humanized, human IgG1/kappa (hzVH02 + hzVL06)
B8: 17G6A2_hzH3L7_hIgG1 (antibody, V domains shown)
VH: B1 VH with G44R
VL: B1 VL with G72E
notes: Humanized, human IgG1/kappa (hzVH03 + hzVL07)
B9: 164C11B8_hzH1L1_hIgG1 (antibody, V domains shown)
VH: EVQLLESGGGLVQPGGSLRLSCAASGFTFSTYTMSWVRQAPGKGLEWVSTINSGGDNTYYPDSVKGRFTISRDNSKNTLYLQMNSLRAEDTAVYYCATYRPYYYGSVLDYWGQGTTVTVSS
VL: DIVMTQSPDSLAVSLGERATINCKASQSVDYDGNSYVNWYQQKPGQPPKLLIYGASNLESGVPDRFSGSGSGTDFTLTISSLQAEDVAVYYCQQSDEDPWTFGGGTKVEIKR
B10: 164C11B8_hzH3L1_hIgG1 (antibody, V domains shown)
VH: B9 VH with F27I, S49A
VL: B9 VL
B11: 164C11B8_hzH4L1_hIgG1 (antibody, V domains shown)
VH: B9 VH with F27I, G44R, S49A
VL: B9 VL
B12: 164C11B8_hzH2L1_hIgG1 (antibody, V domains shown)
VH: B9 VH with S49A
VL: B9 VL

For the first assay, the target named is T1, human CLEC4A (human, UniProt Q9UMR7 70-237, limits assumed).
T1 sequence (looked up): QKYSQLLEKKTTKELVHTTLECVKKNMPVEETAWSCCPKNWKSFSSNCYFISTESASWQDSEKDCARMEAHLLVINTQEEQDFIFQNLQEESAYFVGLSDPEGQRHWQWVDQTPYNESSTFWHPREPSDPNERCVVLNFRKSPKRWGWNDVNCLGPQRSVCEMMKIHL
As to the kind of experiment: ELISA, coated protein 1 µg/ml. (ELISA stands for enzyme-linked immunosorbent assay.)
On to B1, for which the binding result was “no binding (tested: 10 µg/ml)”.

Take B2: the binding result is “no binding (tested: 10 µg/ml)”.

Consider B3, for which the binding result is recorded as “no binding (tested: 10 µg/ml)”.

With B4, the binding result is reported as “no binding (tested: 10 µg/ml)”.

Consider B5, for which the binding result is “no binding (tested: 10 µg/ml)”.

Turning to B6, the binding result is on record as “no binding (tested: 10 µg/ml)”.

Turning to B7, the binding result was “no binding (tested: 10 µg/ml)”.

As for B8, the binding result is “no binding (tested: 10 µg/ml)”.

Another assay concerns the target T2, human CLEC4E (human, UniProt Q9ULY5 41-219, limits assumed).
T2 sequence (looked up): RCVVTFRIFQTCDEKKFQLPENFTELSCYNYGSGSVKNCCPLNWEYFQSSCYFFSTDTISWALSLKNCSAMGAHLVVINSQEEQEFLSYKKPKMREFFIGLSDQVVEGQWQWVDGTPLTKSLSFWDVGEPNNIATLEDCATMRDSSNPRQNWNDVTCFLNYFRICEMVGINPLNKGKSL
As to the kind of experiment: ELISA, coated protein 1 µg/ml.
In the case of B1, the binding result was “no binding (tested: 10 µg/ml)”.

B2: the binding result is recorded as “no binding (tested: 10 µg/ml)”.

For the molecule B3, the binding result is listed as “no binding (tested: 10 µg/ml)”.

Turning to B4, the binding result was “no binding (tested: 10 µg/ml)”.

Consider B5, for which the binding result is on record as “no binding (tested: 10 µg/ml)”.

On to B6, for which the binding result is reported as “no binding (tested: 10 µg/ml)”.

On to B7, for which the binding result is “no binding (tested: 10 µg/ml)”.

As for B8, the binding result is on record as “no binding (tested: 10 µg/ml)”.

The target in a further assay is T3, human CLEC4D (human, UniProt Q8WXI8 39-215, limits assumed).
T3 sequence (looked up): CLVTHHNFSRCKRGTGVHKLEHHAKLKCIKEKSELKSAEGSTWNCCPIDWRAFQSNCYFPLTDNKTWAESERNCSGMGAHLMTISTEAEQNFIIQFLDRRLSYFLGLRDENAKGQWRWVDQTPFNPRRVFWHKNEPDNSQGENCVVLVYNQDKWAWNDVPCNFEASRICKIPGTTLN
As to the kind of experiment: ELISA, coated protein 1 µg/ml.
B1: the binding result is given as “no binding (tested: 10 µg/ml)”.

B2: the binding result was “no binding (tested: 10 µg/ml)”.

B3: the binding result is recorded as “no binding (tested: 10 µg/ml)”.

For the molecule B4, the binding result is listed as “no binding (tested: 10 µg/ml)”.

In the case of B5, the binding result is “no binding (tested: 10 µg/ml)”.

On to B6, for which the binding result is on record as “no binding (tested: 10 µg/ml)”.

B7: the binding result is reported as “no binding (tested: 10 µg/ml)”.

Turning to B8, the binding result is “no binding (tested: 10 µg/ml)”.

For a further assay, the target named is T4, human CLEC6A (human, UniProt Q6EIG7 42-209, limits assumed).
T4 sequence (looked up): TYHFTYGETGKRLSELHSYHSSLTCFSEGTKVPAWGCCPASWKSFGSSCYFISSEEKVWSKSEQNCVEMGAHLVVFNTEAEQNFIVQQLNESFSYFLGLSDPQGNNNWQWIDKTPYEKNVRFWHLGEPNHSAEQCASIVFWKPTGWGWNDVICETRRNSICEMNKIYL
As to the kind of experiment: ELISA, coated protein 1 µg/ml.
B1: the binding result was “no binding (tested: 10 µg/ml)”.

Regarding B2, the binding result is on record as “no binding (tested: 10 µg/ml)”.

On to B3, for which the binding result is “no binding (tested: 10 µg/ml)”.

For the molecule B4, the binding result is given as “no binding (tested: 10 µg/ml)”.

Consider B5, for which the binding result is given as “no binding (tested: 10 µg/ml)”.

With B6, the binding result is listed as “no binding (tested: 10 µg/ml)”.

As to B7, the binding result is “no binding (tested: 10 µg/ml)”.

In the case of B8, the binding result is listed as “no binding (tested: 10 µg/ml)”.

The target in another assay is T5, human BDCA-2 on cells (Jurkat-hBDCA-2 cells; human pDCs; human PBMCs) (human, UniProt Q8WTT0 1-213).
T5 construct: whole, on cells; also called CD303; CLEC4C
T5 sequence (looked up): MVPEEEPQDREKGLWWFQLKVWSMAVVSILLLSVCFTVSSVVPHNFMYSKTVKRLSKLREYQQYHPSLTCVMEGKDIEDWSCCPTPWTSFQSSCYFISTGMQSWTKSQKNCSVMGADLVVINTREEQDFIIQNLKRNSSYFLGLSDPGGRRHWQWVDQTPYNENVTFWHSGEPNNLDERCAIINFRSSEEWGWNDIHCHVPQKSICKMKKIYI
Briefly: flow cytometry on Jurkat-hBDCA-2 cells. (In general: Flow cytometry measures light scatter and fluorescence of single cells or particles in a stream.)
Take B9: the EC50 (in general, the concentration needed to bring the measured effect to its halfway point) was found to be 0.0429 µg/mL.

Consider B10, for which the EC50 is 0.0675 µg/mL.

B11 gave an EC50 of 0.191 µg/mL.

Consider B12, for which the EC50 amounted to 0.104 µg/mL.

Molecule B1 yielded an EC50 of 0.18 µg/mL.

In turn, B2 displayed an EC50 of 0.0442 µg/mL.

In turn, B3 registered an EC50 of 0.066 µg/mL.

Consider B4, for which the EC50 amounted to 0.0831 µg/mL.

For B5, the EC50 was found to be 0.0456 µg/mL.

In the case of B6, it took 0.0608 µg/mL to reach a half-maximal effect (EC50).

B7 came in with an EC50 of 0.0701 µg/mL.

As to B8, the EC50 came out at 0.0583 µg/mL.

A further assay addresses T5, human BDCA-2 on cells (Jurkat-hBDCA-2 …). As to the kind of experiment: cell-based or functional assay.
With B1, the “EC50, inhibition of CpGA-induced type I interferon (IFNα) production in human PBMC cells” value (“EC50, inhibition” for short) was found to be 0.0014 µg/mL.

As for B2, the “EC50, inhibition” value was determined as 0.0011 µg/mL.

As to B3, the “EC50, inhibition” value turned out to be 0.0014 µg/mL.

Turning to B4, the “EC50, inhibition” value was 0.0017 µg/mL.

With B5, the “EC50, inhibition” value was 0.0011 µg/mL.

Regarding B6, the “EC50, inhibition” value worked out at 0.0011 µg/mL.

With B7, the “EC50, inhibition” value came out at 0.0017 µg/mL.

Regarding B8, the “EC50, inhibition” value is 0.0011 µg/mL.

Another assay concerns the target T6, Human BDCA-2 protein (soluble, Octet analyte) (human, UniProt Q8WTT0 45-213, limits assumed).
T6 construct: Soluble protein used as analyte in BLI
T6 sequence (looked up): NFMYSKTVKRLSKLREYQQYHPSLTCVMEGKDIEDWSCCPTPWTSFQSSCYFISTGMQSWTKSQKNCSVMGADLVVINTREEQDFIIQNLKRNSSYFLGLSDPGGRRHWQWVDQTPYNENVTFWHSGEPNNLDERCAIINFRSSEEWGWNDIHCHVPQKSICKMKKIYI
As to the kind of experiment: BLI (Octet Red96e), antibody on anti-human IgG sensor, human BDCA-2 protein in solution. (In general: In BLI a coated tip is dipped into the sample, and binding shifts an interference pattern.)
For B1, the Kd – broadly, a measure of binding affinity in units of concentration – is 3.2 nM; the dissociation rate constant (koff) (as a rule, the first-order rate constant of dissociation) was 0.000567 s⁻¹; the kon (commonly the rate constant with which the complex forms) is 176000 M⁻¹ s⁻¹.

On to B2, for which binding was put at a Kd of 6.3 nM, the koff was found to be 0.000872 s⁻¹ and the kon is 138000 M⁻¹ s⁻¹.

In turn, B6 returned a Kd of 1.8 nM, a koff of 0.000311 s⁻¹ and a kon of 174000 M⁻¹ s⁻¹.

For B7, binding was put at a Kd of 3 nM, the koff is 0.000309 s⁻¹ and the kon came to 101000 M⁻¹ s⁻¹.

The target of the next assay is T7, cynomolgus monkey BDCA-2 on cells (Jurkat-cynoBDCA-2 cells; cynomolgus monkey pDCs) (cynomolgus monkey, UniProt A0A2K5UWP4 1-212).
T7 construct: whole, on cells
T7 sequence: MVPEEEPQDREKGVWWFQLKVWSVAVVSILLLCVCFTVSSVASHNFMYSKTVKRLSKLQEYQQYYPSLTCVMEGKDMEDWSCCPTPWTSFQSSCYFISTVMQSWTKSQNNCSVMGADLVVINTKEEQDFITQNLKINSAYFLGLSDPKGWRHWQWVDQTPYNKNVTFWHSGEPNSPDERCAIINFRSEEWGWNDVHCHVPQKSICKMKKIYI
As to the kind of experiment: flow cytometry on Jurkat-cynoBDCA-2 cells.
As to B9, a half-maximal effect (EC50) was put at 0.158 µg/mL.

B11: the response was half-maximal at 0.31 µg/mL (EC50).

With B12, a half-maximal response (EC50) required 0.252 µg/mL.

In the case of B1, the EC50 amounted to 0.0943 µg/mL.

On to B2, for which the EC50 was found to be 0.0781 µg/mL.

B3: the EC50 came out at 0.101 µg/mL.

For B4, the EC50 is 0.0663 µg/mL.

B5 showed an EC50 of 0.0688 µg/mL.

As for B6, the EC50 was found to be 0.0988 µg/mL.

For B7, the midpoint of the response, the EC50, lay at 0.106 µg/mL.

B8 displayed an EC50 of 0.0975 µg/mL.

Source of the values: patent EP4775675A1 (Shanghai Hongcheng Biopharmaceutical Co., Ltd., dated 2026).
